Test: soluble on expression in E. coli; label from the status in PepcDB or PDB records

Row | Sequence | soluble on expression in E. coli
1 | MKRREVLQAGMALGGLAGLGRALAQGGFTLTLVHTNDTHAHLEPVELTLSGEKTPVGGVARRVALFDRVWARAKNPLFLDAGDVFQGTLYFNQYRGLADRYFMHRLRYRAMALGNHEFDLGPGPLADFLKGARFKVVSANVDASREPRLKGLFAPYAVVVVGGERVGIIGLTTPDTREISNPGPTVAFLDPYESAQKAVYELLAKGVNKIVVLSHLGYGEDLKLARRLVGVQVIVGGHSHTLLGSFPHKELSPAGPYPTVVKNPEGKDVLVVQAWEWGKVVGLLEVTFDAKGELLAYKGEALLMTPEAAPEDFFAKEALLAYAQPVMALMQQVIAEAKVDLVGERAVVRRRESNLGNLITDGMLWKTRNAGTQIALQNGGGIRASIPKGPITVGKVYEVLPFGNTLVVMDLKGKEILAALENGVSQWENTAGRFLQVSGLRYAFDLSRPAGSRVVRVEVKTEKGYVPLDLEATYRVVVNNFIANGGDGFTVLKEAQGYRVDTGFSDAESFMDYLKELKVVEAGLEGRIEVLNEPKGERPAYFAYRVPGLVGV | soluble
2 | MSLNERAKIKIIPLGGINEIGKNITAIEYKEDIIIIDCGLKFPDDDMFGIDIVIPDVSYLIKNSEKIKGIFLTHGHEDHIGALPYVLRQLNVPVYGTKLTLGIVETKLKEHGLLASTELVRVKPKDIIKLDSVSVEFIKTNHSIADSVAIAVHTPLGVVLHTGDFKIDYTPIDGEMMDFGRLAELGRKGVLVLMADSTNVERPGYTMTEKVVGETFLRLFGKAKGRLIVATFASNVHRIQQIITAAEAYEKKVAVSGRSMENIVQVAIELGYLTVGKDVLVPVDQISKYPNEKIVVITTGSQGEPMSALARMAASEHRKINVIPGDTVIISATPIPGNEKFVSKVINQLFKKGAQVIYDSQEKIHVSGHACQEELKLMQALVKPKFFVPVHGEYRHLKKHGELAMEVGLSEKNLLIPENGDVIEVAREGHHHHHH | soluble
3 | MGSDKIHHHHHHMTKSKISNPKLPMALQTSTIFSLQAPKDISLNEIDAELNQIWQSYGITGEDGGLPSATRATTFTLVVYEPEETQYLLAALGFYNGPIDGILGPQMAAALREVQKKHKLPETGTATQETLTILREEFAKGQRGGTGGEHAIAGLNSSSPRIADEIALRNPCRIIALFPITGEDEGVKAQVSAYCPIQKQSSSTLICCEYITLSGTAAALERIGGMIPALLIGGLPKFLWWKATPDPNNGLFKRLAAICNNVIVDSCNFNEPESDLLRLEELVEAGVPLADLNWRRLASWQELTAEAYDSPKRRAALREIDRVTIDYEKGNPAQALLFLGWLASRLEWQPVSYQKESGDYDITRIHFISQDQRQVEAELAGVPVADVGDIIGDLIALRLSSTNPQADCGTVICSETGGCMRMETHGGAQSAGLFQQVTSLSEQKAEALLSQQVQRWGRESLFEESLGVTANIFKLAN | not soluble
4 | MGSDKIHHHHHHMHFTPALKPGKLLKRYKRFLADVQLEDGSEITVHCPNTGSMRNCLFPGETLWFSTSSNTKRKYAHTWELMTTPTGALIGIHSGNANALVEEALNKGIITELTGYDSLRREVKYGDENSRIDILLECAQKTACYIEVKSCTLQENGQGYFPDAVSLRGQKHLRELMHMASLGHRAVLLFVVQHTDIMSVAPAAHIDPEYANLLKKSVLSGVEVLAYRCEISPSEIHLAQSCPVRV | not soluble
5 | MFSKSSNRFGTTSIFGDQSIKDEYRNRQRRLSLIGGPISGTSPNRRESLVRELRTVSLHQYTEDPTLAWEMLKEKRPVKPVRQMRLDTPVKPDHVRFVCIGCTHGEQFDISKLPPGDVLLVAGDFTSCGLPNEVHNFNKLLGKLKYSYKVVIGGNHECTFDDTFLKLKQESEPKEMALKQALLSAIHSDSKGGISAKDLLSNAIYLEDNVIELFGITIYGTPWQPKVDNWAFNLSRGQQLLDKWNLIPAALTCF | not soluble
6 | RIVLQTSAHTLGDVVVTGYQTLERRKLTAAISKVEVSDAMVGAAKSIDQALTGQIAGVSVTNTSGAPGSPAKIRIRGTASMNGTQDPLWVLDGIPLEGTDIPKMDNKSSDNDIVNIGQSSIAGLSPNDIESITILKDAAATAIYGARAANGVIVVTTKRGKTGK | not soluble
7 | MRVENSNGQSQPAATSKTVKDNAEIYYDNDDSDRFYFHVWGGEDIHVGLYKEPVDQDEIREASLRTDEWLASELAMTGVLQRQAKGLDLGAGYGGAARFLVRKFGVSIDCLNIAPVQNKRNEEYNSQAGLADNITVKYGSFLEIPCEDNSYDFIWSQDAFLHSPDKLKVFQECARVLKPGGVMAITDPMKEDGIDKSSIQPILDRIKLHDMGSLGLYRSLAKECGLVTLRTFSRPDSLVHHYSKVKAELIKRSSEIASFCSPEFQANMKRGLEHWIEGGRAGKLTWGGMLFRKSDKI | soluble
8 | MSLKTLMAVGLAAVMSIPFAANAADYVIDTKGAHASINFKVNHLGYSYIKGRFNKFDGEFSYDPANIAASSVVVNVDTRSLDSNHAERDKHIRSADFIDASKYSTATFKSTEVVDKGNGQLEVKGDLTLHGQTKPIVINAEFIGAGQDPWGGQRSGFAGTTRLELKDFGIQVMGASSYVDMELHVEGVQKEGGSHHHHHH | soluble
9 | MDIMQGPSESFVDFANRLIKAVEGSDLPPSARAPVIIDCFRQKSQPDIQQLIRTAPSTLTTPGEIIKYVLDRQKTAPLTDQGIAAAMSSAIQPLIM | soluble
10 | MKAESSNESFIIGQRVHSLNDSRRVGTVKYVGDVEGYSGTWIGVDWDQDGDGKHNGSVNGVFYFNGRSQSSASFVRSQNLSRGITLLQALELRYRTISTKDEEDEMYVLSAGNRRVSIQLLGGDKIQDKLSRFEELTSASLSYLGVSSLGVSSDLGSILPNLKLLDLTGNLISDWEEIGALCEQLPALTTLNLSCNSLSSDIKSLPQLKNIRVLVLNNSGLSWTQVEILRRSLPGIEELHLMGNMISTITSTSSSDDQAFNSLRLLNLDDNCISDWSEVLKLSQLPCLEQLYLNKNKLSRIFQSVNGTESSEKGSDPFPSLSCLLLGANNIGDLASVDALNGFPQLVDIRLSENPISDPVRGGVPRFVLVARLTKVQVLNGSEVRAREKKDSEIRYVRMVMSKLNDKSGEIELLHPRFYELKKLHGIEDERASAENSGPKNIASGLISITLKCVGPSMGEKPHLTKKLPGSITVGKLKILSENFFKLKSIKPRLFLQEEGSPFPTALDDETATLLDVGICDGSTLLVDEES | soluble
11 | MKIGVVGLGLIGASLAGDLRRRGHYLIGVSRQQSTCEKAVERQLVDEAGQDLSLLQTAKIIFLCTPIQLILPTLEKLIPHLSPTAIVTDVASVKTAIAEPASQLWSGFIGGHPMAGTAAQGIDGAEENLFVNAPYVLTPTEYTDPEQLACLRSVLEPLGVKIYLCTPADHDQAVAWISHLPVMVSAALIQACAGEKDGDILKLAQNLASSGFRDTSRVGGGNPELGTMMATYNQRALLKSLQDYRQHLDQLITLISNQQWPELHRLLQQTNGDRDKYVE | soluble
12 | SLKPINYVPHFLCRISGEEINSISEIEFIKTLECLELSEGILRKINSLSADLTKDLHDCISLYKEQSISRVLINLKRDIFNMRFNRVQKYKLENISGFNHDKLNLWLNLAQEYQSTLHLMRETFKMEIQEKRGKLKQLFSNSEYIKAIQVSNTQLYENLLEYLQDNQSHPPKKMRNIEQSLINYLSRMIFKPTPFSSFTGLNYGFFSQEDSSFEINTKESKGHTRINMVYLKKIERMLLNRISIKNKCYVSLNQTINEEENYMFFRRGKDGTSQAFTGEAFIKIKKSELLKELIQYFEGISSMNIVEVVSFLSEKTNYETEALYNYLFKLEKMGVLDFSLGVSEQSDNYTKDLIENLLGIKDSLVEKSVSHLVEIEKIQAIFSESNYQKRYVLLKNLQEHIKKIYSLFDLKLESNDLTSLLFEDVSYKNTKIILNENQWKTHLDDFNLIKNLMPLFDDNILEKLSMNIIFKDIYGNKGAIDLLEFYREFNKYDKNLLWKKIRKNDTYLYLKKLRTEFYDYLETQINMGLDTIFLNKSWLKKFINKFPDLLKSKENYSFYFQIAYDNQDNRILVLNKIGPGLGKHFSRYGNLFLNSEYKENNRFINSLIEQYKKYDQNGGVLTDLNAVLGLNLNMHPNLLNYEITYPGCNPSKGINQVALKDIEVLYDSNSDQLKLYSKQYRQNVKLLPLGFLFPALSPSLYKFLCGFSESNGIEYSFWNKFLNEHNNNFSLLPRIMLGSVALDRRTWKINAKEIQKEFSKDTFETFINFHKWVKENQLPEDIFLRVANTMDAFSENELLNQDLGSWIAEIKQTKHRKPQYVNFNNYFHIDALRKIIKDVNNTVTIQEVYPHPDDVYYQKNSKKCVEFLVEVF | soluble
13 | MAKDDVIEVEGTVLETLPNAMFKVELENGHVVLAHVSGKIRMNFIRILPGDKVTVELSPYDLNRGRITYRFK | not soluble
14 | MPSSTSSSLENLSVSVCAAGDSAAYQRNSVFGDDVVIVAAYRSPLCKAKRGGLKDTYPDDILAPVLKALIEKTNINPAEVGDIVVGSVLGAGSQRASECRMAAFYAGFPETVPVRTVNRQCSSGLQAVADVAAAIKAGFYDIGIGAGLESMTANPMAWEGSVNPKVKTMAQAQDCLLPMGITSENVAQKFSITRQEQDQAAVGSHRKTAAATAAGRFKDEIIPIKTKIVDPKTGDEKPVTISVDDGIRPGTSLADLAKLKPVFRKDGSTTAGTSSQVSDGAGAVLLMKRSIALQKGLPILGVFRTFAAVGVPPSIMGIGPAVAIPAAVKAAGLQIDDIDLFEINEAFASQFVYCQKKLEIDPQKINVNGGAMAIGHPLGATGARCVATLLHEMKRRGRDCRFGVVSMCIGTGMGAAAVFERGDACDELCNAKAKHHHHHH | soluble
15 | MAHHHHHHMEQQGDSEAKEHGELTRNGITDNAYDNSVGAFNRTILDRYAHWMTQLDQGACGLRIWKAEELWKRYERVIRVGRGSFGSVFIVYDTERKAYLTVKCMELLGKPGPALRSLSQPTLREVILLSQIDHPNVVRLIDYYLTSDGMLHMCMPIVSHDLVSLIRIWKMRGPRGESSLGRMPLPTVKCVFRQLLRGLEYLHRRNIIHRDLKPSNVMLDDNGVVKIVDFGWARFVPRRWQGRLTGPPCVVTYRPPEILLGGQCSFKYDSSIDIWSAGCILYEMLTGGKAFSNARNEQQALAAITDMLGSPSSRSEVYYGAAGGSRLRPSKRQPRNFEERCRMVNMSNESIDFLGEMLQLEPNSRKSASQLLGHSWFSTSPLPCEPEEVSLPGSNTYRLLERKRTR | not soluble
16 | MGSDKIHHHHHHMSELTDLLLQGPRSAPELRQRLAISQATFSRLVAREDRVIRFGKARATRYALLRPYRGIERIPVWRVDDTGKAHKFADIRLCWPQGSCLVTGADGDEQWFDGLPWYLTDLRPQGFLGRAWGRKLAAQLNLTDDIRLWQEEDVLYALTVFNGEYTGGWLVGEGNYQRWITAQHPAEIPLDQKLTHYEQLASDALAGEIVGSSAGGEQPKFTYYAQTPSGNKHVLVKFTVPQQTAVSQRWGDLLIAESIAAQILRDGGIHAIESTVLVTSNRQVFLEAERFDCKGNDGRLPIVSLEAVQSEFISSPGSWPQAMRRLCEQQLVTHQSVAQTEVIWAFGRLIANSDMHAGNLSFYLSEPPFALTPVYDMLPMVYAPNSAGMLRDAAIEVKFDLNVSKSAWLTAIPLAQQFWQTVARDPRISEAFRHIAQEMPEKIRQIEEKVARMGG | not soluble
17 | MFDISHMGRLLIEDPEKKLQYFTTNNLDKLSVGKVQYNLLPNEKGGIKDDVTVYMLSEIEFFLCVNAANRQKVINWLSPHLKLRDLSGELVQIALQGPKSEEIISKFYPVSDLKYYRFKVFDKTIISRTGYTGEDGFEIYVSPEEGKELFLELVKLAKPCGLGARDVLRIEAGLPLYGNELSEEITPIEVNLEKFVDFSKEFIGKEAMLKKKVKKKLFGLELTEKGIPRKGYRVFKGDREIGWISSGTYSPTLNKGIALCFVDIEERKEGNEVEIEVRGRRVRGVLRKYPFVRTPAGRYQKLEHHHHHH | not soluble
18 | MGSDKIHHHHHHANSTNTIVSTSNMASTAYTRKSATGWTYNLGGTATNMTFGKKTHYLKNYPNTTWHATKKRYIIKKNGVKYLYYYVTNGRKTAAGWIWHGYLQKKSYAHTATTTSSTGTGTYDSILKAAKTQLGKPYAYGGNGPSAFDCSGFTKYVFNQAIGQTLPRTAQAQYDSYTHVSAANAKAGDLIFFGTSASNITHCGIYLGNHKMIDAQLNGVITEATNVSWWHTVGYSRPATLS | not soluble

Source: the DeepSol protein solubility set
